Source: patent US20050282743A1, “Molecular interactions in cells” (Arbor Vita Corporation, priority 2001, published 2005)
Ends that are not written are not given here. Peptide text beside a SMILES is read from it. * marks the point of attachment. Biotin = O=C1N[C@H]2[C@H](CS[C@H]2CCCCC(=O)*)N1

Biological target: T1, PDZ protein (GST-PDZ fusion) (Homo sapiens, UniProt Q96JH8)
T1 construct: made in house; host or cells: E. coli (DH5alpha, BL21 or JM109)
T1 sequence (Q96JH8 1-1075): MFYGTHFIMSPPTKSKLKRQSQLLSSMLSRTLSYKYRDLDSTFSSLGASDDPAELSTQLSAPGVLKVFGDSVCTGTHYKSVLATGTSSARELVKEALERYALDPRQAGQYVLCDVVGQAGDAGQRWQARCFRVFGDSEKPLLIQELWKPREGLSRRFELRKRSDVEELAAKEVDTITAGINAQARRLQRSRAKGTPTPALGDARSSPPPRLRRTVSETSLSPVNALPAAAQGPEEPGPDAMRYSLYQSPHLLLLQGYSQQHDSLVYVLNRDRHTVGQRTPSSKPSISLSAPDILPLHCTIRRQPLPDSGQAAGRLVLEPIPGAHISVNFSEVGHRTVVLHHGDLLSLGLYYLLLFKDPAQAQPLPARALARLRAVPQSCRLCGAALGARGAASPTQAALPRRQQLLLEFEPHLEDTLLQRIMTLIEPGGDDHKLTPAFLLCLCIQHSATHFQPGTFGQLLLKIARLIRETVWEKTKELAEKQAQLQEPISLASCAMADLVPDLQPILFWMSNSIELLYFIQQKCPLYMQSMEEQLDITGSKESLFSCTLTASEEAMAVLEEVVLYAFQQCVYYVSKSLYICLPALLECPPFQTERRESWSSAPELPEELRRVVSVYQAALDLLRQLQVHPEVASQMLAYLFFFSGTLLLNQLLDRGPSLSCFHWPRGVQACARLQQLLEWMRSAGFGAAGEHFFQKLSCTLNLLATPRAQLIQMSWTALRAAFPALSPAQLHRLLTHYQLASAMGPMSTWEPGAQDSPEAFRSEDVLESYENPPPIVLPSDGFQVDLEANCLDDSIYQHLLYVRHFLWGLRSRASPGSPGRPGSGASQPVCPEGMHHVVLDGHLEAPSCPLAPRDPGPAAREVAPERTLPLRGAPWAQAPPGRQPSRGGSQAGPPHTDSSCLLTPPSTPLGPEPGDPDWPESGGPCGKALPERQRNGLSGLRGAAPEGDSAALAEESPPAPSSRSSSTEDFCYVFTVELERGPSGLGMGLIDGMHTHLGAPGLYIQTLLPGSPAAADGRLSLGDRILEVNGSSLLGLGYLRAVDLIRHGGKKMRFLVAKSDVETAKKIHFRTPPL
Assay: G' assay (10 uM PL peptide), results of TABLE 7 and TABLE 12
Assay type: binding
Conditions: PDZ FLJ 10324, PDZ Domain 1
Method in brief: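 Biotin-PL peptide (N-term label), 10 uM vs GST-PDZ; protein 5 ug/ml by default. A450 nm binned: 1 = 0-1, 2 = 1-2, 3 = 2-3, 4 = 3-4, 5 = >4 on >2 repeats, 0 = no binding.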

Compound | Classification
CC[C@H](C)[C@H](NC(=O)[C@H](CCC(=O)O)NC(=O)[C@H](CC(N)=O)NC(=O)[C@H](CCCNC(=N)N)NC(=O)[C@H](Cc1ccccc1)NC(=O)[C@H](CC(N)=O)NC(=O)[C@H](CO)NC(=O)[C@H](CC(N)=O)NC(=O)[C@H](CCC(=O)O)NC(=O)[C@H](CO)NC(=O)[C@H](CC(=O)O)NC(=O)[C@H](CO)NC(=O)[C@@H](NC(=O)[C@@H](NC(=O)[C@H](CC(=O)O)NC(=O)[C@H](CCCCN)NC(=O)CCCC[C@@H]1SC[C@@H]2NC(=O)N[C@@H]21)[C@@H](C)CC)[C@@H](C)O)C(=O)N[C@@H](CCC(N)=O)C(=O)N[C@@H](CO)C(=O)N[C@@H](CC(C)C)C(=O)N[C@H](C(=O)O)C(C)C [CD95] (Biotin-KDITSDSENSNFRNEIQSLV-OH; C-terminus assumed) | 1 (A450 nm 0-1)
LASKSAEEGKQIPDSLSTDL (Biotin-LASKSAEEGKQIPDSLSTDL) [Dock2] | 1 (A450 nm 0-1)
CC[C@H](C)[C@H](NC(=O)[C@H](C)NC(=O)[C@H](CC(C)C)NC(=O)[C@H](Cc1c[nH]c2ccccc12)NC(=O)[C@H](Cc1c[nH]cn1)NC(=O)[C@H](CCC(N)=O)NC(=O)[C@H](CC(C)C)NC(=O)[C@H](CCC(N)=O)NC(=O)[C@H](Cc1ccccc1)NC(=O)[C@H](CCC(N)=O)NC(=O)[C@H](CCCNC(=N)N)NC(=O)[C@@H](NC(=O)[C@H](CC(=O)O)NC(=O)[C@H](CCCNC(=N)N)NC(=O)[C@H](CCC(N)=O)NC(=O)[C@H](C)NC(=O)[C@@H](NC(=O)[C@H](CC(C)C)NC(=O)[C@H](Cc1c[nH]cn1)NC(=O)[C@H](Cc1c[nH]cn1)NC(=O)CCCC[C@@H]1SC[C@@H]2NC(=O)N[C@@H]21)C(C)C)[C@@H](C)CC)C(=O)O [noradrenaline transporter] (Biotin-HHLVAQRDIRQFQLQHWLAI-OH; C-terminus assumed) | 3 (A450 nm 2-3)
GPVPGEPAKPKTSAHHATFV (Biotin-GPVPGEPAKPKTSAHHATFV) | 1 (A450 nm 0-1)
SLKPGTVLPPPPYRHRNTVV (Biotin-SLKPGTVLPPPPYRHRNTVV) [ErbB-4 receptor] | 1 (A450 nm 0-1)
CC(C)C[C@H](NC(=O)CNC(=O)[C@@H](NC(=O)[C@H](CO)NC(=O)[C@H](CC(N)=O)NC(=O)[C@H](Cc1ccccc1)NC(=O)CNC(=O)[C@H](C)NC(=O)[C@H](C)NC(=O)[C@H](Cc1ccccc1)NC(=O)[C@@H](NC(=O)CCCC[C@@H]1SC[C@@H]2NC(=O)N[C@@H]21)[C@@H](C)O)[C@@H](C)O)C(=O)N1CCC[C@H]1C(=O)N[C@@H](Cc1c[nH]cn1)C(=O)N[C@@H](CO)C(=O)N[C@H](C(=O)N[C@H](C(=O)N[C@@H](CCCNC(=N)N)C(=O)N[C@H](C(=O)O)C(C)C)[C@@H](C)O)[C@@H](C)O [Neuroligin] (Biotin-TFAAGFNSTGLPHSTTRV-OH; C-terminus assumed) | 1 (A450 nm 0-1)
ELLQFCRTPNPALKNGQYWV (Biotin-ELLQFCRTPNPALKNGQYWV) | 5 (A450 nm of 4 more than 2× repeated)
CC[C@H](C)[C@H](NC(=O)[C@H](CCC(N)=O)NC(=O)[C@@H](NC(=O)[C@H](Cc1c[nH]cn1)NC(=O)[C@H](CCC(N)=O)NC(=O)[C@H](CC(=O)O)NC(=O)[C@H](CCC(=O)O)NC(=O)[C@H](CC(=O)O)NC(=O)[C@H](Cc1ccccc1)NC(=O)[C@@H]1CCCN1C(=O)[C@H](CCC(=O)O)NC(=O)[C@H](CC(N)=O)NC(=O)[C@H](CCC(=O)O)NC(=O)[C@@H]1CCCN1C(=O)[C@H](CC(=O)O)NC(=O)[C@H](CO)NC(=O)[C@H](CC(=O)O)NC(=O)CCCC[C@@H]1SC[C@@H]2NC(=O)N[C@@H]21)[C@@H](C)O)C(=O)N[C@H](C(=O)N[C@@H](CCCCN)C(=O)N[C@H](C(=O)O)C(C)C)[C@@H](C)O [PTEN] | 1 (A450 nm 0-1)
PYSELNYETSHYPASPDSWV (Biotin-PYSELNYETSHYPASPDSWV) [catenin - delta 2] | 3 (A450 nm 2-3)
ALVLIAFCIIRRRPSAYQAL (Biotin-ALVLIAFCIIRRRPSAYQAL) [CD68] | 1 (A450 nm 0-1)
CC[C@H](C)[C@H](NC(=O)[C@H](Cc1ccc(O)cc1)NC(=O)[C@H](CC(C)C)NC(=O)[C@H](CCC(N)=O)NC(=O)[C@H](Cc1c[nH]cn1)NC(=O)[C@H](CO)NC(=O)[C@H](C)NC(=O)[C@H](CC(C)C)NC(=O)[C@@H](NC(=O)[C@H](CC(=O)O)NC(=O)[C@H](CCSC)NC(=O)[C@H](Cc1ccccc1)NC(=O)[C@@H]1CCCN1C(=O)[C@H](CCCNC(=N)N)NC(=O)[C@@H](NC(=O)[C@H](CC(C)C)NC(=O)[C@H](CC(N)=O)NC(=O)[C@H](CC(=O)O)NC(=O)[C@@H](NC(=O)[C@H](CO)NC(=O)CCCC[C@@H]1SC[C@@H]2NC(=O)N[C@@H]21)[C@@H](C)O)C(C)C)[C@@H](C)O)C(=O)O [presenilin-2] (Biotin-STDNLVRPFMDTLASHQLYI-OH; C-terminus assumed) | 5 (A450 nm of 4 more than 2× repeated)
PPATPSPRLALPAHHNATRL (Biotin-PPATPSPRLALPAHHNATRL) [Na+/Pi cotransporter 2] | 1 (A450 nm 0-1)
A2AA_HUMAN (modified) (Biotin-HDFRRAFKKILARGDRKRIV; not fully specified) | 1 (A450 nm 0-1)
CC(C)C[C@H](NC(=O)[C@H](Cc1c[nH]c2ccccc12)NC(=O)[C@H](Cc1c[nH]cn1)NC(=O)[C@H](CCCNC(=N)N)NC(=O)[C@H](CC(C)C)NC(=O)[C@@H](NC(=O)[C@H](Cc1ccccc1)NC(=O)[C@H](CCC(N)=O)NC(=O)[C@H](CCCNC(=N)N)NC(=O)[C@@H](NC(=O)[C@H](CCC(=O)O)NC(=O)CNC(=O)[C@H](CCCNC(=N)N)NC(=O)[C@H](CC(=O)O)NC(=O)[C@@H](NC(=O)[C@H](CC(C)C)NC(=O)[C@H](CCC(=O)O)NC(=O)[C@H](CCCNC(=N)N)NC(=O)CCCC[C@@H]1SC[C@@H]2NC(=O)N[C@@H]21)C(C)C)C(C)C)[C@@H](C)O)C(=O)N[C@@H](CCCCN)C(=O)N[C@H](C(=O)O)C(C)C [Dopamine transporter (Na+-dependent)] (Biotin-RELVDRGEVRQFTLRHWLKV-OH; C-terminus assumed) | 5 (A450 nm of 4 more than 2× repeated)
CC(C)C[C@H](NC(=O)[C@H](C)NC(=O)[C@H](CO)NC(=O)CNC(=O)[C@@H](NC(=O)CCCC[C@@H]1SC[C@@H]2NC(=O)N[C@@H]21)[C@@H](C)O)C(=O)N[C@@H](CCC(N)=O)C(=O)N[C@@H](C)C(=O)N[C@@H](Cc1c[nH]c2ccccc12)C(=O)N[C@@H](CCCNC(=N)N)C(=O)N[C@@H](Cc1c[nH]cn1)C(=O)N[C@H](C(=O)N[C@@H](CO)C(=O)N[C@@H](CCCNC(=N)N)C(=O)N[C@@H](CCC(N)=O)C(=O)N[C@@H](C)C(=O)N[C@H](C(=O)N[C@@H](CCC(=O)O)C(=O)N[C@@H](CO)C(=O)N[C@H](C(=O)N[C@H](C(=O)O)C(C)C)[C@@H](C)O)[C@@H](C)O)[C@@H](C)O [HPV E6 #66 (modified)] (Biotin-TGSALQAWRHTSRQATESTV-OH; C-terminus assumed) | 1 (A450 nm 0-1)
KTMPAAMFRLLTGQETPLYI (Biotin-KTMPAAMFRLLTGQETPLYI) [MINT-2] | 4 (A450 nm 3-4)

Same assay, conditions: PDZ FLJ 10324, PDZ Domain 1; Protein Optimal Conc 5

Compound | Classification
CC[C@H](C)[C@H](NC(=O)[C@H](CCCCN)NC(=O)[C@@H](NC(=O)[C@H](CO)NC(=O)[C@@H]1CCCN1C(=O)[C@H](Cc1ccccc1)NC(=O)[C@@H](NC(=O)[C@@H](NC(=O)[C@H](CCCNC(=N)N)NC(=O)[C@H](CCC(=O)O)NC(=O)[C@H](CC(C)C)NC(=O)[C@H](CC(C)C)NC(=O)[C@H](CC(C)C)NC(=O)[C@@H](NC(=O)CNC(=O)[C@@H](NC(=O)CCCC[C@@H]1SC[C@@H]2NC(=O)N[C@@H]21)C(C)C)[C@@H](C)O)C(C)C)[C@@H](C)CC)C(C)C)C(=O)N[C@@H](C)C(=O)N[C@H](C(=O)N[C@@H](CC(C)C)C(=O)N[C@H](C(=O)O)C(C)C)[C@@H](C)O [Adenovirus E4 Type9] | 3 (A450 nm 2-3)
